Laboratory results as given in US20150329594A1 (University of California, published 2015).
Bridge positions count the residues as written; N and C are the ends. Square brackets hold non-standard residues; d marks the D form. Nal = 1-naphthylalanine or 2-naphthylalanine; Trp(1-Me) = Cn1cc(C[C@H](N)C(=O)O)c2ccccc21; Aal = not defined here; Sea = not defined here

Target: human complement protein C3 (human, UniProt P01024 23-1663)
Experiment: cell-based or functional assay

Chain of human complement protein C3 (P01024 23-1663 limits assumed): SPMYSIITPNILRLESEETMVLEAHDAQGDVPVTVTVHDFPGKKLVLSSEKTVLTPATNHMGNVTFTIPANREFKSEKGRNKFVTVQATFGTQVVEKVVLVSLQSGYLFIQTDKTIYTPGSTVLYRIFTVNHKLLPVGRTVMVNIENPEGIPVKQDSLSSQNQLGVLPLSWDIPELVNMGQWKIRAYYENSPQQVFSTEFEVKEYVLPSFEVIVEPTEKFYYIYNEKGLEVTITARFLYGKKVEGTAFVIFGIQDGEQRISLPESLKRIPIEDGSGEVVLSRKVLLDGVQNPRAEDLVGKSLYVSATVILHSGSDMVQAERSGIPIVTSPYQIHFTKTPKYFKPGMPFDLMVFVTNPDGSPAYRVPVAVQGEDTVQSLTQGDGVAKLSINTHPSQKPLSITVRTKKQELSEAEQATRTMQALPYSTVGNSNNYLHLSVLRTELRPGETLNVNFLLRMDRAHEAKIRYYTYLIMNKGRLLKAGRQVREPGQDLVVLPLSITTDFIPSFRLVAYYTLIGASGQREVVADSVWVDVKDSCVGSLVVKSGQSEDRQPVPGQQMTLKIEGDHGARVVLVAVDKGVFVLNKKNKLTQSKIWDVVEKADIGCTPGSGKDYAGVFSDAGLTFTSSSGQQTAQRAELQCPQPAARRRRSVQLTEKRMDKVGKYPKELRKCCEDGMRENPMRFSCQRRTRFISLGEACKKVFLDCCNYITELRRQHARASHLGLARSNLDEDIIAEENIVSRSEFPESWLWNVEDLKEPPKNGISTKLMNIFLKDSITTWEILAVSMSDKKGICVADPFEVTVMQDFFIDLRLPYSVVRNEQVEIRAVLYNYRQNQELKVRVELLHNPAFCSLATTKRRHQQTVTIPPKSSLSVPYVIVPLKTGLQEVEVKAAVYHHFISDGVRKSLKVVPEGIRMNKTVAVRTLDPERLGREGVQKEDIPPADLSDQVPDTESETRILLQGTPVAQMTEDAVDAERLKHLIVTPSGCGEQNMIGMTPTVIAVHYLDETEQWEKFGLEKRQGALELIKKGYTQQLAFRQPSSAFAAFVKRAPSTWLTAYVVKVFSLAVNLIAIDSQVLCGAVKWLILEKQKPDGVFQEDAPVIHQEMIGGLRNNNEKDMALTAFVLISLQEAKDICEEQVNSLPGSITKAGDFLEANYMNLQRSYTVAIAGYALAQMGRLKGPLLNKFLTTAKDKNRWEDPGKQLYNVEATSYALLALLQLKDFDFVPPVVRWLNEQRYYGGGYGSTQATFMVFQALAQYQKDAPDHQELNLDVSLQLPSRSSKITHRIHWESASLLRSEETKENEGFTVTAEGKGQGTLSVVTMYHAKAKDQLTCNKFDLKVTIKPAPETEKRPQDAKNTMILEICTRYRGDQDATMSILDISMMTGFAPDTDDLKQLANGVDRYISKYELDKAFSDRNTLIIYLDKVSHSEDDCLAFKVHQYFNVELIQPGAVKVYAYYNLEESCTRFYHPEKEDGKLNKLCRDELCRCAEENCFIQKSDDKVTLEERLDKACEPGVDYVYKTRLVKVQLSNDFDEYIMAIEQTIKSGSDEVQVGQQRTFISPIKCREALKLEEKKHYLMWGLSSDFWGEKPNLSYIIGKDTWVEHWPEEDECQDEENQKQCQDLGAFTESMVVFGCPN

Binder | C3b ELISA IC50 [nM] | C5b-9 ELISA IC50 [nM] | Lysis IC50 [nM]
Ac-NRLCV[Nal]QDWG[Nal]HRCT-NH2 (disulfide 4-14; not fully specified; printed as Ac-NRLCV{Nal}QDWG{Nal}HRCT-NH2) [Peptide 4.7, Ac-NR-LCV{Nal}QDWG{Nal}HRCT-NH2] | 2300 | 1400 | 1300
Ac-NNLCVWQDWG[Nal]HRCT-NH2 (disulfide 4-14; not fully specified; printed as Ac-NN-LCVWQDWG{Nal}HRCT-NH2) [Peptide 4.2, Ac-NN-LCVWQDWG{Nal}HRCT-NH2] | 2900 | 1900 | 2100
Ac-ERICV[Nal]QDWG[Nal]HRCT-NH2 (disulfide 4-14; not fully specified; printed as Ac-ERICV{Nal}QDWG{Nal}HRCT-NH2) [Peptide 4.5, Ac-ER-ICV{Nal}QDWG{Nal}HRCT-NH2] | 3800 | 2400 | 3000
Ac-NNLCV[Nal]QDWG[Nal]HRCT-NH2 (disulfide 4-14; not fully specified; printed as Ac-NNLCV{Nal}QDWG{Nal}HRCT-NH2) [Peptide 4.6, Ac-NN-LCV{Nal}QDWG{Nal}HRCT-NH2] | 3900 | 2300 | 2200
Ac-RSICVWQDWG[Nal]HRCT-NH2 (disulfide 4-14; not fully specified; printed as Ac-RS-ICVWQDWG{Nal}HRCT-NH2) [Peptide 4.4, Ac-RS-ICVWQDWG{Nal}HRCT-NH2] | 3100 | 2000 | 1800
Ac-ERICVWQDWG[Nal]HRCT-NH2 (disulfide 4-14; not fully specified; printed as Ac-ER-ICVWQDWG{Nal}HRCT-NH2) [Peptide 4.1, Ac-ER-ICVWQDWG{Nal}HRCT-NH2] | 3000 | 1800 | 2300
Ac-ICVWQDWG[Nal]HRCT-NH2 (disulfide 2-12; not fully specified; printed as Ac-ICVWQDWG{Nal}HRCT-NH2) [Peptide 2.2, Ac-ICVWQDWG{Nal}HRCT-NH2] | 2400 | 2000 | 1400
Ac-RSICV[Nal]QDWG[Nal]HRCT-NH2 (disulfide 4-14; not fully specified; printed as Ac-RSICV{Nal}QDWG{Nal}HRCT-NH2) [Peptide 4.8, Ac-RS-ICV{Nal}QDWG{Nal}HRCT-NH2] | 4100 | 2400 | 2800
Ac-NRLCVWQDWG[Nal]HRCT-NH2 (disulfide 4-14; not fully specified; printed as Ac-NR-LCVWQDWG{Nal}HRCT-NH2) [Peptide 4.3, Ac-NR-LCVWQDWG{Nal}HRCT-NH2] | 2000 | 1200 | 1200
Ac-ICVWQDWG[Sea]HRCT-NH2 (disulfide 2-12; reading uncertain; also: printed as Ac-ICVWQDWG{Sea}HRCT-NH2) [Peptide 2.5, Ac-ICVWQDWG{Sea}HRCT-NH2] | 600 | 700 | 500
Ac-ICV[Trp(1-Me)]QDWG[Nal]HRCT-NH2 (disulfide 2-12; not fully specified; printed as Ac-ICV{meW}QDWG{Nal}HRCT-NH2) [Peptide 2.1, Ac-ICVmeWQDWG{Nal}HRCT-NH2] | 1400 | 900 | 900
Ac-ICVWQDWG[Aal]HRCT-NH2 (disulfide 2-12; reading uncertain; also: printed as Ac-ICVWQDWG{Aal}HRCT-NH2) [Peptide 2.4, Ac-ICVWQDWG{Aal}HRCT-NH2] | 900 | 800 | 700
